This is an account of results in patent publication US20210032329A1 (VACCINEX, published 2021).

One assay has as its target T1, mouse SEMA4D-His (mouse, UniProt O09126 24-733, limits assumed).
T1 construct: not shown: His tag, detected with anti-6xHis-APC
T1 sequence (looked up): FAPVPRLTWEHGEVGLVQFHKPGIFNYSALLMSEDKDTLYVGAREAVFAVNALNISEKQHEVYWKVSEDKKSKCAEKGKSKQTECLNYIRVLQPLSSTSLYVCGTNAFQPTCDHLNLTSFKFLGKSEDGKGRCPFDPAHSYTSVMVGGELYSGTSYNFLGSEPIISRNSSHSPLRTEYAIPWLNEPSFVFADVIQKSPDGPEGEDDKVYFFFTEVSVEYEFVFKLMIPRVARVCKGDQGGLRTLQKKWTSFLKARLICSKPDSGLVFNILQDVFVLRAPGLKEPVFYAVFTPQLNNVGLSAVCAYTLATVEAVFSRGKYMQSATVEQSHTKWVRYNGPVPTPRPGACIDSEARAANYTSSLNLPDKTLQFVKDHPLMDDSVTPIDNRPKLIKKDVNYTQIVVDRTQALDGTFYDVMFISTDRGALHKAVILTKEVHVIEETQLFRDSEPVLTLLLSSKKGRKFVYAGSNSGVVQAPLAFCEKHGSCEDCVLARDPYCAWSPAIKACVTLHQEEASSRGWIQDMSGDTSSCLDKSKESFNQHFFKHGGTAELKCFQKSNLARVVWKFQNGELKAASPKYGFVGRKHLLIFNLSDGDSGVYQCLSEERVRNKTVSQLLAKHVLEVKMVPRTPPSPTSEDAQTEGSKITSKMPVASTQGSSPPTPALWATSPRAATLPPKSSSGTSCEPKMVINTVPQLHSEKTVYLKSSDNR
As to the kind of experiment: receptor blocking; antibody dilution series pre-incubated with SEMA4D-His, binding to 293PLXNB1 cells (Plexin B1) read by flow cytometry. The protocol:
(§1) After washing, the cells were stained with anti-6xHis-APC (30 min, 4° C.), washed and analyzed by flow cytometry on FACS Canto II.
(Flow cytometry measures light scatter and fluorescence of single cells or particles in a stream.)

The target of another assay is T2, human SEMA4D-His (human, UniProt Q92854 22-734, limits assumed).
T2 construct: also called CD100-His; not shown: His tag, detected with anti-6xHis-APC
T2 sequence (looked up): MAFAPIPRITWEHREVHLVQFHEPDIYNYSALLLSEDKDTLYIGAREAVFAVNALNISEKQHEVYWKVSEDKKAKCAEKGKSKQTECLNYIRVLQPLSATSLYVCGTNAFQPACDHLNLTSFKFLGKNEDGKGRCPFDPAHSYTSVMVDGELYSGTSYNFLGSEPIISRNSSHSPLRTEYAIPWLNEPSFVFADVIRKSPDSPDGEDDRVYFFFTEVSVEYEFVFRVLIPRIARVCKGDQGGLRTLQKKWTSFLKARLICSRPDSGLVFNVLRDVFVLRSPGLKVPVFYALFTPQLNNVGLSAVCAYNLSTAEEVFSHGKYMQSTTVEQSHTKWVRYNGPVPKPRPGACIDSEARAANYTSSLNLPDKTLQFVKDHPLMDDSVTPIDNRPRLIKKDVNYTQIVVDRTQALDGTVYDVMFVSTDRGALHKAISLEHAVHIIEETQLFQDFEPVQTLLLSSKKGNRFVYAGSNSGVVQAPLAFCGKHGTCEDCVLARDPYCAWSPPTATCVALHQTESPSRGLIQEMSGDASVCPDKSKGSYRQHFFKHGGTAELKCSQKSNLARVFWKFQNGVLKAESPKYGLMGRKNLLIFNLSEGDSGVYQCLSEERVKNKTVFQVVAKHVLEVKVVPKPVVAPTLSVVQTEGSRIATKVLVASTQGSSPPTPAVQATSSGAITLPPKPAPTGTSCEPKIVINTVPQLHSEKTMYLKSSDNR
Described as above. On the procedure: as §1

A further assay concerns the target T3, rat SEMA4D-His (rat, UniProt A0A8I6G5Q1 23-734).
T3 construct: not shown: His tag, detected with anti-6xHis-APC
The assay is described as above. The protocol:
as §1

Assay [1] deals with T4, cynomolgus monkey SEMA4D-His (cynomolgus monkey).
T4 construct: also called Cyno SEMA4D
The assay is described as above. The protocol: as §1

The next assay concerns the target T5, marmoset SEMA4D-His (marmoset, UniProt A0A8I3W811 22-734).
T5 construct: also called CD100-His; not shown: His tag
T5 sequence: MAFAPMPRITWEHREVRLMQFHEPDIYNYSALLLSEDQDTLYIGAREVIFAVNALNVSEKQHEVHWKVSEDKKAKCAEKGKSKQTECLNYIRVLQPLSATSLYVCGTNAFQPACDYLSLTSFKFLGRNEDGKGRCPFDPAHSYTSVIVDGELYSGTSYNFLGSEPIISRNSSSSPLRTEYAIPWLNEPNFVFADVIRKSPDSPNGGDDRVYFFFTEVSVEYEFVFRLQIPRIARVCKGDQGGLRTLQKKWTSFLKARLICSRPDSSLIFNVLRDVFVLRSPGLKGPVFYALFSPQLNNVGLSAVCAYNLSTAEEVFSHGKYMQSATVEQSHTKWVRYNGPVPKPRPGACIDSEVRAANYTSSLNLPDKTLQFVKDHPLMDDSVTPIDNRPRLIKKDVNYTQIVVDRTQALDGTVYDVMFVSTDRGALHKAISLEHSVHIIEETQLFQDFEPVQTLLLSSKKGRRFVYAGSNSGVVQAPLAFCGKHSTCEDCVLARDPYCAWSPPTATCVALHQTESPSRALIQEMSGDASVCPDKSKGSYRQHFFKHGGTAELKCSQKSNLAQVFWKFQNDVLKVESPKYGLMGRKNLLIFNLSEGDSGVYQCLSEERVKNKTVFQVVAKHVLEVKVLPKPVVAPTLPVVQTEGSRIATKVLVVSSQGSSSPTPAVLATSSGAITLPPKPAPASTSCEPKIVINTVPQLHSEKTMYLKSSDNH
As to the kind of experiment: BIACORE; antibody captured with goat anti-human IgG Fc, marmoset SEMA4D-His as analyte. The protocol: The binding characteristics of MAb D2517 were determined by BIACORE assay, as follows.
On the technique in general: In SPR one partner is held on a chip, and binding of the other changes the refractive index at the surface.

B1: MAb D2517 (antibody, V domains shown)
VH: EVQLVESGGGLVQPGGSLRLSCAASGFIFSDYWMVWVRQAPGKGLEYVAHMNQDGGARYYAESVRGRFTISRDNAKNSLYLQMNSLRAEDTAVYYCARDPWGYDSWGQGTLVT
VL: not shown
By EC50 is commonly meant the concentration needed to bring the measured effect to its halfway point. The term Kd denotes a measure of binding affinity in units of concentration. As usually defined, the koff is the first-order rate constant of dissociation. Usually kon stands for the rate constant with which the complex forms. Regarding B1, the EC50 with mouse SEMA4D-His is 1.2 nM. This molecule showed a concentration for a half-maximal effect (EC50) in the assay with human SEMA4D-His of 1 nM. Further, in the assay with rat SEMA4D-His, the EC50 amounted to 1.5 nM. This molecule also displayed an EC50 in assay [1] of 1.2 nM. Besides, in the assay with marmoset SEMA4D-His, the Ka turned out to be 2.47e+08 M⁻¹, the Kd is 4 nM, the koff was 0.0032 s⁻¹ and the kon came to 789000 M⁻¹ s⁻¹.
